Results reported in article PMC11681983.

Columns and labels:
[1] = molecular target: VEGF (UniProt P15692)
[2] = molecular target: VEGF (UniProt P15692); assay: SPR; Biacore, n = 3
[3] = molecular target: VEGF (UniProt P15692); assay: ELISA; direct binding ELISA to IL-17A or VEGF, measured in duplicate, n = 2; who was coated is not told

Chain of VEGF (P15692 whole entry): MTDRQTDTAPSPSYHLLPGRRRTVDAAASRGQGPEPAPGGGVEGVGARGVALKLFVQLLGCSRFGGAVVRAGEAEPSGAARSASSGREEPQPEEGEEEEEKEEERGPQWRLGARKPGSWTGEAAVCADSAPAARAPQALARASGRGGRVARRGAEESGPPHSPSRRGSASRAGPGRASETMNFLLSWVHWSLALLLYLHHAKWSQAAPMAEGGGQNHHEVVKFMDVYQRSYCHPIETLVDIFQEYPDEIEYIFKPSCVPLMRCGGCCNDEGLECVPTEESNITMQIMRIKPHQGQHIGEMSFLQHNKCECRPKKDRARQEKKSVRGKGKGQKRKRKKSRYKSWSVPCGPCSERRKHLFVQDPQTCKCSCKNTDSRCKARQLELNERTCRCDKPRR

luciferase signal of KDR/NFAT-RE HEK293 reporter cells with 30 ng/mL VEGF; blocks signalling of VEGF through KDR [1]: 0.26 nM
Kd [2]: 0.011 nM
EC50 [3]: 0.37 nM
B1: bispecific fusion protein 17V05 (bispecific antibody, V domains shown)
VH: EVQLVESGGGLVQPGGSLRLSCAASGFTFSSFDMSWGRQAPGKRLEWVAFMSSGGSTYYPDSVKGRFTISRDNSKNTLYLQMNSLRAEDTAVYYCARGERYGSYWGQGTLVTVSS
VL: DIQMTQSPSSLSASVGDRVTITCKASDHINNWLAWYQQKPGKAPKLLISGATSLETGVPSRFSGSGSGTDYTLTISSLQPEDFATYYCQQYWSTPFTFGSGTKLEIK
